Starred links: 1 amine or outer side, 2 acyl side, 3 side chain; linkers in the order of their positions; H or OH if unused. Non-standard residues stand in square brackets, D forms with d. Groups on a side chain read outwards from the residue. No end group written: not given here. *: point of attachment. C18 diacid = O=C(O)CCCCCCCCCCCCCCCCC(=O)*; γGlu = O=C(O)[C@H](CCC(=O)[*:2])N[*:1]; αMe4Pal = C[C@](N)(Cc1ccncc1)C(=O)O; 4Pal = N[C@@H](Cc1ccncc1)C(=O)O; αMeL = CC(C)C[C@](C)(N)C(=O)O; Orn = NCCC[C@H](N)C(=O)O; Dab = NCC[C@H](N)C(=O)O; Aib = CC(C)(N)C(=O)O

Common to all, as to assay: cell-based or functional assay
For experiment [1], the target named is hGLP-1R (Homo sapiens, UniProt P43220).
Sequence of hGLP-1R (P43220 24-463): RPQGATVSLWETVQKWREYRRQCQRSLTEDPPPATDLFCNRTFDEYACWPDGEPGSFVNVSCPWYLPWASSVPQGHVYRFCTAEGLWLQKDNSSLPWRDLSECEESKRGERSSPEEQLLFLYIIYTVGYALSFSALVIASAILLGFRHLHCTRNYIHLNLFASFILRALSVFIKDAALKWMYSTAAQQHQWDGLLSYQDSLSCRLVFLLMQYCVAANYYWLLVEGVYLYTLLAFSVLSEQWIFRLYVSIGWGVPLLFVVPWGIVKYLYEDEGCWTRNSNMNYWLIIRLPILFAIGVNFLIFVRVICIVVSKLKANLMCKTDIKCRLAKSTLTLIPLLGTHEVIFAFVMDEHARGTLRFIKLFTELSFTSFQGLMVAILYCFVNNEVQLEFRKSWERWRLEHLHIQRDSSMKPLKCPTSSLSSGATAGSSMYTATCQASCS
In experiment [2] the target is T1, human GIP receptor (human) (UniProt P48546).
T1 sequence (looked up): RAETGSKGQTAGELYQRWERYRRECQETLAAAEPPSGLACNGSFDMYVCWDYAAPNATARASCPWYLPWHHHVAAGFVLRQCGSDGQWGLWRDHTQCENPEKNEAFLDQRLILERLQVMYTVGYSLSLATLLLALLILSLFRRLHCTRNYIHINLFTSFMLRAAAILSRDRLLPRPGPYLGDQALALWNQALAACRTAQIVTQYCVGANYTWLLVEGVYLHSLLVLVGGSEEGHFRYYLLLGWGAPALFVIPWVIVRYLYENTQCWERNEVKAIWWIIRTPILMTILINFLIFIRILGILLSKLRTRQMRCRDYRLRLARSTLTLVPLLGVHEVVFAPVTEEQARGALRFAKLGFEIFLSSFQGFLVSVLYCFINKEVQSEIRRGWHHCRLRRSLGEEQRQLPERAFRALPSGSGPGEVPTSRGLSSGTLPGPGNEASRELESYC

For experiment [3], the target named is human glucagon receptor (human) (UniProt P47871).
Sequence of human glucagon receptor (human) (P47871 26-477): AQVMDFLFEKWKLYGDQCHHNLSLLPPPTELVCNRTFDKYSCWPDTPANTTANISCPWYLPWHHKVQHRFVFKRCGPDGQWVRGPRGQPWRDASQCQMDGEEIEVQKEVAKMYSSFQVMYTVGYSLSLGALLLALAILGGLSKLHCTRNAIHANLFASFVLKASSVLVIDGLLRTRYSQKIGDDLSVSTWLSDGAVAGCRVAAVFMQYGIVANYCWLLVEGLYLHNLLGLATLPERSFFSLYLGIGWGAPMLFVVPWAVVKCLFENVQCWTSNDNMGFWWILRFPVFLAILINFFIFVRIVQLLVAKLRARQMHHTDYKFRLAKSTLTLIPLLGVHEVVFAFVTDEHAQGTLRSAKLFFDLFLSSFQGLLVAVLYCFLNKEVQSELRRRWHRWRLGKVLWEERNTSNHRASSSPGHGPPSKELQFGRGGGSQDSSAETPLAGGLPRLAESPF

With Y[Aib]QGTFTSD[4Pal]S[Dab][αMeL]LD[Orn]K([γGlu-γGlu-C18 diacid])AQ[αMe4Pal]AFIE[αMe4Pal]LLAGGPSSGAPPPEGSEE-NH2 [Example 1055], the Relative cAMP EC50 turned out to be 14.6 nM in experiment [1], 0.366 nM in experiment [2] and 1.88 nM in experiment [3]. The cAMP Rel EC50 (1% HSA) came to 78.9 nM in experiment [2] and 450 nM in experiment [3].
Regarding Y[Aib]QGTFTSD[4Pal]S[Dab][αMeL]LD[Orn]K([γGlu-γGlu-C18 diacid])AQ[Aib]AFIE[αMe4Pal]LLAGGPSSGAPPPEGSEE-NH2 [Example 1054], the Relative cAMP EC50 in experiment [1] stood at 9.53 nM; in experiment [2], 0.797 nM; in experiment [3], 8.06 nM. The cAMP Rel EC50 (1% HSA) was found to be 79.4 nM in experiment [2] and 1630 nM in experiment [3].

B1: Example 1047 (peptide)
chain: YXQGTFTSDFSXXLDKKAQXAFIEYLLEGGPSSGAPPPGGSEE
modifications: non-natural residues, C-terminal amide, acylated Lys with fatty diacid; synthetic construct; SITE 2: note = 2-Aminoisobutyric Acid; SITE 12: note = L-ornithine; SITE 13: note = alpha-methyl-leucine; SITE 17: note = Lysine is chemically modified through conjugation of the epsilon-amino group of the Lysine side chain with (gamma-Glu)2-CO-(CH2)16-CO2H; SITE 20: note = 2-Am
Regarding B1, the Relative cAMP EC50 amounted to 16.2 nM in experiment [1], 0.28 nM in experiment [2] and 8.18 nM in experiment [3]. The values for the cAMP Rel EC50, nM (1% HSA) in experiment [1], in experiment [2] and in experiment [3] were 1960 nM, 60.8 nM and 1510 nM, respectively.

B2: Example 1051 (peptide)
chain: YXQGTFTSDFSXXLDKKAQXAFIEYLLAGGPSSGAPPPEGSEE
modifications: Aib, Orn, αMeL; acylated Lys; C-terminal amide; synthetic construct; SITE 2: note = 2-Aminoisobutyric Acid; SITE 12: note = L-ornithine; SITE 13: note = alpha-methyl-leucine; SITE 17: note = Lysine is chemically modified through conjugation of the epsilon-amino group of the Lysine side chain with (gamma-Glu)2-CO-(CH2)16-CO2H; SITE 20: note = 2-Am
For B2, the Relative cAMP EC50 in experiment [1] came to 8.3 nM; in experiment [2], 0.172 nM; in experiment [3] it was 10.3 nM. For the same molecule, the results for the cAMP Rel EC50 (1% HSA) in experiment [2] and in experiment [3] were 32.6 nM and 1800 nM, respectively.

B3: Example 1043 (peptide)
chain: YXQGTFTSDXSQXLDXKAQXAFIEXLIEGGPSSGAPPPSGSEE
modifications: non-natural residues, C18 diacid-(γGlu)2 acyl on K, C-terminal amide; synthetic construct; SITE 2: note = 2-Aminoisobutyric Acid; SITE 10: note = 3-(4-Pyridyl)-L-alanine; SITE 13: note = alpha-methyl-leucine; SITE 16: note = L-ornithine; SITE 17: note = Lysine is chemically modified through conjugation of the epsilon-amino group of the Lysine side chain with (gamma-Gl)
As to B3, the cAMP Rel EC50, nM (1% HSA) worked out at 268 nM in experiment [1], 44.9 nM in experiment [2] and 2240 nM in experiment [3].

B4: Example 1067 (peptide)
chain: YXQGTFTSDXSXXLDXKAQXAFIEXLLEGGPSSGAPPPSGSEE
modifications: non-natural residues; lysine acylated with C18 diacid; C-terminal amide; synthetic construct; SITE 2: note = 2-Aminoisobutyric Acid; SITE 10: note = 3-(4-Pyridyl)-L-alanine; SITE 12: note = L-ornithine; SITE 13: note = alpha-methyl-leucine; SITE 16: note = L-ornithine; SITE 17: note = Lysine is chemically modified through conjugation of the epsilon-amino group of the Lys
As for B4, the figures for the Relative cAMP EC50 in experiment [1], in experiment [2] and in experiment [3] were 17.6 nM, 0.471 nM and 12.6 nM, respectively. The cAMP Rel EC50 (1% HSA) in experiment [1] was 2610 nM; in experiment [2] it was 86.4 nM; in experiment [3], 1860 nM.

B5: Example 1064 (peptide)
chain: YXQGTFTSDXSXXLDXKAQXAFIEXLLEGGPSSGAPPPSGSEE
modifications: Aib, 4Pal, Orn, αMeL, αMeY; lysine acylated C18 diacid; amide; synthetic construct; SITE 2: note = 2-Aminoisobutyric Acid; SITE 10: note = 3-(4-Pyridyl)-L-alanine; SITE 12: note = L-ornithine; SITE 13: note = alpha-methyl-leucine; SITE 16: note = L-ornithine; SITE 17: note = Lysine is chemically modified through conjugation of the epsilon-amino group of the Lys
Turning to B5, the Relative cAMP EC50 turned out to be 7.89 nM in experiment [1], 0.556 nM in experiment [2] and 13.7 nM in experiment [3]. The results for the cAMP Rel EC50 (1% HSA) in experiment [1], in experiment [2] and in experiment [3] were 912 nM, 62.5 nM and 1940 nM, respectively.

B6: Example 1053 (peptide)
chain: YXQGTFTSDFSXXLDXKAQXAFIEXLLAGGPSSGAPPPEGSEE
modifications: non-natural residues, (γGlu)2-C18 diacid lysine acylation, C-terminal amide; synthetic construct; SITE 2: note = 2-Aminoisobutyric Acid; SITE 12: note = L-ornithine; SITE 13: note = alpha-methyl-leucine; SITE 16: note = L-ornithine; SITE 17: note = Lysine is chemically modified through conjugation of the epsilon-amino group of the Lysine side chain with (gamma-Glu)2-CO-(CH2)
In the case of B6, the Relative cAMP EC50 in experiment [1] was determined as 6.2 nM; in experiment [2] it was 0.123 nM; in experiment [3], 10.4 nM. For the same molecule, the cAMP Rel EC50 (1% HSA) stood at 19.3 nM in experiment [2] and 3470 nM in experiment [3].

B7: Example 1061 (peptide)
chain: YXQGTFTSDXSXXLDXKAQXAFIEYLIAGGPSSGAPPPSGSEE
modifications: non-natural residues, C-terminal amide, acylated Lys with fatty diacid; synthetic construct; SITE 2: note = 2-Aminoisobutyric Acid; SITE 10: note = 3-(4-Pyridyl)-L-alanine; SITE 12: note = …; SITE 13: note = alpha-methyl-leucine; SITE 16: note = L-ornithine; SITE 17: note = Lysine is chemically modified through conjugation of the epsilon-amino group of the Lys
For B7, the Relative cAMP EC50 in experiment [1] amounted to 4.56 nM; in experiment [2], 0.656 nM; in experiment [3], 17.3 nM. The cAMP Rel EC50 (1% HSA) stood at 55.6 nM in experiment [2] and 2910 nM in experiment [3].

B8: Example 1048 (peptide)
chain: YXQGTFTSDFSXXLDXKAQXAFIEYLLEGGPSSGAPPPGGSEE
modifications: non-natural residues (Aib, Orn, αMeL); lipidated Lys; C-terminal amide; synthetic construct; SITE 2: note = 2-Aminoisobutyric Acid; SITE 12: note = L-ornithine; SITE 13: note = alpha-methyl-leucine; SITE 16: note = L-ornithine; SITE 17: note = Lysine is chemically modified through conjugation of the epsilon-amino group of the Lysine side chain with (gamma-Glu)2-CO-(CH2)
Regarding B8, the figures for the Relative cAMP EC50 in experiment [1], in experiment [2] and in experiment [3] were 6.23 nM, 0.356 nM and 6.9 nM, respectively. For the same molecule, the cAMP Rel EC50, nM (1% HSA) in experiment [1] came out at 1900 nM; in experiment [2], 108 nM; in experiment [3] it was 1930 nM.

B9: Example 1045 (peptide)
chain: YXQGTFTSDXSQXLDXKAQXQFIEXLIEGGPSSGAPPPSGSEE
modifications: non-natural residues; lipidated Lys AEEA-γGlu-C18 diacid; C-term amide; synthetic construct; SITE 2: note = 2-Aminoisobutyric Acid; SITE 10: note = 3-(4-Pyridyl)-L-alanine; SITE 13: note = alpha-methyl-leucine; SITE 16: note = L-ornithine; SITE 17: note = Lysine is chemically modified through conjugation of the epsilon-amino group of the Lysine side chain with (2-[2-(2-
As to B9, the values for the cAMP Rel EC50, nM (1% HSA) in experiment [1], in experiment [2] and in experiment [3] were 276 nM, 107 nM and 1540 nM, respectively.

B10: Example 1050 (peptide)
chain: YXQGTFTSDFSXXLDXKAQXAFIEXLLEGGPSSGAPPPGGSEE
modifications: non-natural residues; Lys acylated C18 diacid via γGlu2; C-term amide; synthetic construct; SITE 2: note = 2-Aminoisobutyric Acid; SITE 12: note = L-ornithine; SITE 13: note = alpha-methyl-leucine; SITE 16: note = L-ornithine; SITE 17: note = Lysine is chemically modified through conjugation of the epsilon-amino group of the Lysine side chain with (gamma-Glu)2-CO-(CH2)
In the case of B10, the values for the Relative cAMP EC50 in experiment [1], in experiment [2] and in experiment [3] were 7.65 nM, 0.152 nM and 6.8 nM, respectively. Further, the figures for the cAMP Rel EC50 (1% HSA) in experiment [1], in experiment [2] and in experiment [3] were 1240 nM, 68.5 nM and 2040 nM, respectively.

Values taken from patent publication US20240270821A1, “GIP/GLP1/GCG TRI-RECEPTOR AGONISTS AND USES THEREOF” (priority 2023, published 2024).
